# Experimental data: the DeepSol protein solubility set
# Experiment: soluble on expression in E. coli; label from the status in PepcDB or PDB records
row,Sequence,soluble on expression in E. coli
1,MIGMDHLAIGTYEGFLIGYDIDTQPNDPKTTTGCTLRYAYAAHERSIRCIAGSFPILASASVDESIKVYQLDQLQELATLYDLQVPVNSVDIQLQGGLLSGGEDGKLVYYPYGGWSKPKYLKGHKGNVHSVALHPTGQICLSVARDKCLKLWKTNGDCVCSLELPDEAFIVKWTEDGQGWVIATQTSFSVHSLQTGLIQQWEYSTRLVCLCALTNDIFVVGGMDGHLRVGENKPIQVHKVDGGSLVKGIGVGRDGCIYSLSSKGVLEMVAPSRQLEIQNGVVKRYIE,not soluble
2,LKVSEPAPKGFLIIGANDVARQVGLAIAKYDCRVVVTDSNWDYIRQARMTGLEHYYGNPISSHAEDYLNLIGIGHVLALSPDKHFNIMACMQFLSDFGDKRVFCLNDNPTNNVSEKHLVAQEYHGLPFLGGEVSYKKLASLVGQGAEVKHTKLS,not soluble
3,MAATSSTSSQSFDIELDIIGQQPPLLSIYTQISLVYPVSDPSQYPTIVSTLEEGLKRLSQTFPWVAGQVKTEGISEGNTGTSKIIPYEETPRLVVKDLRDDSSAPTIEGLRKAGFPLEMFDENVVAPRKTLAIGPGNGPNDPKPVLLLQLNFIKGGLILTVNGQHGAMDMTGQDAIIRLLSKACRNESFTEEEISAMNLDRKTVVPLLENYKVGPELDHQIAKPAPAGDAPPAPAKATWAFFSFTPKALSELKDAATKTLDASSKFVSTDDALSAFIWQSTSRVRLARLDASTPTEFCRAVDMRGPMGVSSTYPGLLQNMTYHDSTVAEIANEPLGATASRLRSELNSDRLRRRTQALATYMHGLPDKSSVSLTADANPSSSIMLSSWAKVGCWEYDFGFGLGKPESVRRPRFEPFESLMYFMPKKPDGEFTASISLRDEDMERLKADEEWTKYAKYIG,soluble
4,MSLEEPFEIPPVEDTESVAKVDVRVDGIRDDRLSENVRIYLEAMDKNEADGSERHQYLLRENISKALRVFGYYNSQVYFDLQPRSGKKDLLIASVNVGEPVRIDSTDIEISGEAAEDEEFRKLDKNVPAKGAVLEHEIYDDYKSSLEKLARQRGYFDADFPVHELQVMPSTNQGWWHLVFNSGQRYHYGDISFHGSQIREDYLRNILKIQSGDPYLINDVSGMTSDYSSTNWFQSVLVKPTLHEDSKLVDLAVLLRPRKKNSMELGIGYGSDSGPHTQIGWTRPWINSRGHSVRSNLYISSPKQNFEATYKMPLLKNPLNYYYEFSTGFEHEDDTKTDTQSTAATVAALRFWNHPTGWQYSAGLRARYDNFTQADVDEKTLLIYPTATVSRSRISGGTFADRADTISVTVDLGRKMWASDVNFFRIRANAGWIKTFATNHRFLTRGDIGYLHTDEFNRIPPALRFFAGGDRSVRGYGYKKIAPKDSRNGKLVGGSRLATGTLEYQYQVVQDWWAATFFDAGFAANRFSSDELRYGAGVGVRWASPVGPIKFDIATPVRDKDDSKNIQFYIGLGTEEGHHHHHH,not soluble
5,MKTLLLLIPLVLTACGTLTGIPAHGGGKRFAVEQELVAASSRAAVKEMDLSALKGRKAALYVSVMGDQGSGNISGGRYSIDALIRGGYHNNPDSATRYSYPAYDTTATTKSDALSGVTTSTSLLNAPAAALTKNNGRKGERSAGLSVNGTGDYRNETLLANPRDVSFLTNLIQTVFYLRGIEVVPPEYADTDVFVTVDVFGTVRSRTELHLYNAETLKAQTKLEYFAVDRDSRKLLIAPKTAAYESQYQEQYALWMGPYSVGKTVKASDRLMVDFSDITPYGDTTAQNRPDFKQNNGKNPDVGNEVIRRRKGG,not soluble
6,MSAEAAAVEVQANEAPIVAPIMYKVESSDGQVYEISDEAVKQSNTLSNLISTCVANDVASMDPIPITNVTGNIMKMVIEWCEKHKGETLPVEDDSVPKNITVPEWDTNFLKIDNDVLFDLIVASNFLDVPGLMSYACKMVANMAIGKSPDEMRVLFAIPTDEEDEAAEKAAKEKAEAEKKAITEKDAAEPSTSK,soluble
7,MVHIKKGELTQEEKELLEVIGKGTVQEAGTLLSSKNVRVNCLDENGMTPLMHAAYKGKLDMCKLLLRHGADVNCHQHEHGYTALMFAALSGNKDITWVMLEAGAETDVVNSVGRTAAQMAAFVGQHDCVTIINNFFPRERLDYYTKPQGLDKEPKLPPKLAGPLHKIITTTNLHPVKIVMLVNENPLLTEEAALNKCYRVMDLICEKCMKQRDMNEVLAMKMHYISCIFQKCINFLKDGENKLDTLIKSLLKGRASDGFPVYQEKIIRESIRKFPYCEATLLQQLVRSIAPVEIGSDPTAFSVLTQAITGQVGFVDVEFCTTCGEKGASKRCSVCKMVIYCDQTCQKTHWFTHKKICKNLKDIYEKQQLEAAKEKRQEENHGKLDVNSNCVNEEQPEAEVGISQKDSNPEDSGEGKKESLESEAELEGLQDAPAGPQVSEE,soluble
8,EGIRQGVLKTAQNGNGNLIYLTGGMATVDHGAFHQGKFLTLKMDDSEVVRALPDVKSVAPTAKWKERITVGDRSSWQEPLAVTSEFQSMTNLVPMAGGRWLNPLDQKETRKVVVLGYELAADLFNPNEDFSWFATVTLQVNPVGKKVKIGNEEFTVVGVLEKNSAQIELGDLINYSSFVPLATWKRFHVNGEIGGINVQPQADVDREALAKTIRQVIARKHGASVNDEQVVQVDDMFLKQKSMQQFLIGLQS,not soluble
9,MGEQPIFSTRAHVFQIDPNTKKNWVPTSKHAVTVSYFYDSTRNVYRIISLDGSKAIINSTITPNMTFTKTSQKFGQWADSRANTVYGLGFSSEHHLSKFAEKFQEFKEAAR,soluble
10,MTRLTVFKPRSLVSILMFTTVWAVGSASASTLDLEAQRAQYDKAQRWLDEKNVAQYQRIRKQIDSYPLTPYLDYRAFLIDLGSKPPIAVRNFIDSHKEYPFSARIAAPYLDALARSKKWSALLQFQTQLPNGETYQCHYYNAKLQTGKRNEAFEGAKKLWLNGASIADACDPLFAEWDRVGGLSDDWVLKRALLAFEGRNRNLIVYLQKKLDGKKSQAKAQGMLELFDKPERVLAYSRKASQDPINQKLAELALQKWARSEPQEAQAVFNDVAKAQGWNQEQKGRVARFIAIRLMDTEEAAIAKWRDEVTRTSQDVRLIEARIRLALRENDWRGLSQWIAVLPEQERKTLRWQYWQGRSEIALGKKKEGTERLKALLGQRSFYSVAAAKILQQSVNYPTSTVTLDMKQIKAHKKALARIDELIALDKVPAAKSEWRWLLDRVSQKEKEMLAAYAADSGWYQMTIAATISASLWDNNQLRFPVVHQNLFTLHGRKNGVDPITLMSLARQESALNPDAQSPVGARGLMQIMPDTARYTARKYQLSYSNPDELYQVGKNIEIGSRYLSSLLERYDQNRILAFAAYNAGPSRVDSWLKRSQGKLDAYGFIEAIPFAETRGYVQNILMFETYYRDLMGVQGRFLNEHELNTKY,soluble
11,MLSFRNWWAREDSNPRPPGYEPGALPTELRAHTAIRLYSNKTPLSRSVISMKKDPIKEMLVKYPRILVIKAALKILKDGNKIDRERIEKTIVKIMTKKEGLEHHHHHH,soluble
12,MGSDKIHHHHHHLLPKYNILTEDQVQKIHENTMKILEEIGIEFEYEPALEVFRREGQKVEGKRVYLTREFVESKLKSAPAEFTLHARNPENNVVIGGDNIVFMPGYGAPFIYELDGSRRKTTLQDYENFAKLAGASKNMHLSGGTMAEPQDIPDGVRHLQMLYSSIKNSDKCFMGSAEGKERAEDSVEIAAILFGGKDVIKEKPVLVSLINSLTPLKYDERMLGALMAYAEAGQAVIIASLVMAGSTGPASLAGTLSLQNAEVLAGISLAQSINPGTPVIYGSTSALSDMRSGSLSIGSPECALFISASAQLARFYGVPSRSGGGLNDSKTVDAQAGYESMMTLMAANLTGVNFVLHTAGILQYFMAMSYEKFIMDDEIAGMLLHYMKGYTFDEDGMAFDVIEKVGPGGHFLTQKHTRKNHKREFYTPTLSDRSAYDTWAKEKLETKQRAHARWQQILANYVPPALDPEIDAKLQAFIAQRGKEVGEE,not soluble
13,MGHHHHHHGGHMSLSTKAKQQSSQQMTRGFEPYQETKGEEYMSERMRAHFTAILNKWKQELMEEVDRTVHHMQDEAANFPDPADRASQEEEFSLELRARDRERKLIKKIDETLQLIEDEEYGWCDSCGVEIGIRRLEARPTATLCIDCKTLAEIREKQLGSEGGS,soluble
14,MTGWGDHDSLYINPYENRNKLRTYSEYFPIVEVDSSFYAMQPARNYTKWAMETPKDFSFIVKAYQGMTGHMKGEIPFSTFDEMFDVYKQSILPLIEAGKLKTILFQYPPWFDCKKKNVDFLRYTKEKMEGLPCAIEFRNQTWFYPEMRDRTLQFLEQEKWIHTICDEPQAGIGSVPLVLEVTNSDMALIRFHGRNVHGWLDKGENWRAVRCLYRYNNKELEEWVERLEQLKKKTKDIYVLFNNNSGGDAADNAKQLMKMMNITYGEPKPEQLNFFE,not soluble
15,MEVAPSFSSVLKDCAVIEGQDFVLQCSVRGTPVPRITWLLNGQPIQYARSTCEAGVAELHIQDALPEDHGTYTCLAENALGQVSCSAWVTVH,soluble
16,MGSDKIHHHHHHMQFPSIEDLRARNTMKWTRYGQGVLPLWVAESDFSTCPAVLQAITDAVQREAFGYQPDGSLLSQATAEFYADRYGYQARPEWIFPIPDVVRGLYIAIDHFTPAQSKVIVPTPAYPPFFHLLSATQREGIFIDATGGINLHDVEKGFQAGARSILLCNPYNPLGMVFAPEWLNELCDLAHRYDARVLVDEIHAPLVFDGQHTVAAGVSDTAASVCITITAPSKAWNIAGLKCAQIIFSNPSDAEHWQQLSPVIKDGASTLGLIAAEAAYRYGTDFLNQEVAYLKNNHDFLLHEIPKRIPGAKITPMQATYLMWIDFRDTTIEGSPSEFFIEKAKVAMNDGAWFGEDGTGFCRLNFATSREVLEEAIDRMAKAVSHHT,not soluble
17,MSLNASSISSRFKDLFVTPSIVFDFDGTLAIGHGPVLAYALCVAPEGSKDFLERVRRELRRYDDGQSIYRDGYDIVAKLASELGIDDGTMSVAYGESRKLLGSDLAPVEHVRGIKDILSSLKGHARLVLATNAPENGVHDLLRQWGVADLFDQLHFVVGKPAGLISIISDLQLDGPVLAVGDIYEFDLSPAAQLGADTALVGATATISEAKVSMRGDSIADLPLLAWVSSRVSSEGHHHHHH,soluble
18,MKKTLATLFLLTCLGSSSAYADNALILQTDFSLKDGAVSAMKGVAFGVDHNLKIFDLTHEIPPYNIWEGAYRLYQTASYWPQGSVFVSVVDPGVGTDRKSIVLKTKNGQYFVSPDNGTLTLVAESLGIESVREIDEKANRLKGSEKSYTFHGRDVYAYTGARLASGAITFEQVGPELPAKVVELSYQKAKATKGEVKGNIPILDIQYGNVWSNISDELLNQAGIKLNDTLCVTISEGSRQKYAGKMPYVASFGDVPEGQPMVYLNSLLNVSVALNMDNFAQKHQVASGADWNIDVKKCDK,not soluble
19,MMLSRAKPAVGGESPHTDKRKKKGRKIPKLEDLLSQRDFTGAITLLEFKRHVGEQEDDTNLWIGYCAFHLGDYKRALEEYENATKEENCNPEVWVNLACTYFFLGMYKQAEAAGFKAPKSRLQNRLLFHLAHKFNDEKKLMNFHQNLQDIKEDQLSLASNSEIHLPLPPECWD,not soluble
20,LWHASIAIVGSRQPSAGGLDHSYGFAQALAARGLGIISGMAAGIDATAHEAALSIPSGHTVAVLGTGPDVPYPARHKKLHARITTDGAVISEYPPGTQPRAAHFPQRNRIIAGLALGTLVVEAGARSGALITARLAAEAGRAVFAVPGSLHNPMTRGCHQLIRQGATLVQDIDQILED,not soluble
21,TAKQRDDAIENAEAAKVESEQVAKKATEGELHLAEVLEQANLNSIELKSVSQALDEQSSQLDEQVNALNVNSESQASAAEQMSQQVHHMATGIEESSKFVEELREKSEDVHQQAEKSSELLEDSTQAIGQIITSHEEIMKVADLITSVAEANQLAGFKCGNRSGASRRSGQRFCCGCRASTRAICEE,not soluble
